Where no end group is shown, it is not given here.
Tests used:
Conditions in all cases: both partners purified
[1] = target: T1, Human His-Gαi3 WT (human, UniProt P08754 1-354); test: fluorescence polarisation; fluorescein-labelled peptide 0.025 μM, G protein 0–8 μM; room temperature; 50 mM Tris-HCl pH 7.4, 100 mM NaCl, 0.4% NP-40, 10 mM MgCl2, 5 mM EDTA, 2 mM DTT, 30 μM GDP; one site binding hyperbola
T1 construct: Gαi3, human, UniProt P08754, full length; same plasmid as for the NMR studies; also called His-tagged Gαi3; tagged protein; source: E. coli, pET24d(+), purified as uncleaved His-tagged protein (HisPur Cobalt Resin); not shown: His tag, N-terminal, kept
T1 sequence (P08754 whole entry): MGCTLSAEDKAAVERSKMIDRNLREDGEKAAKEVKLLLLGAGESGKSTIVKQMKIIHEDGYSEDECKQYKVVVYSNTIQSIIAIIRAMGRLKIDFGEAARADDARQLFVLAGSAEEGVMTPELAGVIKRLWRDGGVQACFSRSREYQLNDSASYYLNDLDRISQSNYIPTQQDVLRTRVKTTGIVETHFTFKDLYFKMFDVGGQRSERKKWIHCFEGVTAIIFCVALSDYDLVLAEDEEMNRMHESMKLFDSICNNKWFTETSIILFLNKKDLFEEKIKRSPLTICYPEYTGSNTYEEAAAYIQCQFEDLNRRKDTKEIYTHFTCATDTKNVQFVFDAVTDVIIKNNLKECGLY

[2] = target: T2, Human His-Gαi3 S252A (human, UniProt P08754 1-354, S252 mutated to A); test: as above
T2 construct: Gαi3, human, UniProt P08754, full length; also called S252 mutated to A; source: E. coli, pET24d(+), purified as uncleaved His-tagged protein (HisPur Cobalt Resin); not shown: His tag, N-terminal, kept
T2 sequence (P08754 whole entry S252A): as the sequence (P08754 whole entry) above, with S252A counted along it

[3] = target: T3, Human His-Gαi3 ΔC9 (lacking the last nine residues) (human, UniProt P08754 1-345); test: as above
T3 construct: Gαi3, human, UniProt P08754, lacking the last nine residues; source: E. coli, pET24d(+), purified as uncleaved His-tagged protein (HisPur Cobalt Resin); not shown: His tag, N-terminal, kept
T3 sequence (P08754 1-345, stated change not applied): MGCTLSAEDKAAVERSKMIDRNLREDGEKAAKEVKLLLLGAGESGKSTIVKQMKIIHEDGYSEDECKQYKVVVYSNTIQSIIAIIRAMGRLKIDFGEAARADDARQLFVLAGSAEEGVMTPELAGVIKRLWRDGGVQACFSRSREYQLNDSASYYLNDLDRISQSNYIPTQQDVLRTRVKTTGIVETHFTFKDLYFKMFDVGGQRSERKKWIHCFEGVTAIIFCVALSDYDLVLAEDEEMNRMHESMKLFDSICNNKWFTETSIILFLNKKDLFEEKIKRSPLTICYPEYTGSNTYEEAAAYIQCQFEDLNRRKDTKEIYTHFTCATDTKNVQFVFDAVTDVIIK

[4] = target: T4, Full-length human Gαi3, untagged (NMR sample) (human, UniProt P08754 1-354); test: as above
T4 construct: Uniformly 2H,13C,15N labelled for NMR; also called Gαi3-GDP; 2H,13C,15N-Gαi3; source: E. coli BL21 Rosetta, pET24d(+), purified (His-Trap, tag cleavage, GST-Trap, Superdex 200); not shown: His tag, N-terminal, cleaved
T4 sequence (P08754 whole entry): as the sequence (P08754 whole entry) above

[5] = target: T5, Human His-Gαi3 N256A (human, UniProt P08754 1-354, N256 mutated to A); test: as above
T5 construct: Gαi3, human, UniProt P08754, full length; also called N256 mutated to A; source: E. coli, pET24d(+), purified as uncleaved His-tagged protein (HisPur Cobalt Resin); not shown: His tag, N-terminal, kept
T5 sequence (P08754 whole entry N256A): as the sequence (P08754 whole entry) above, with N256A counted along it

[6] = target: T6, Human His-Gαi3 W211A (human, UniProt P08754 1-354, W211A); test: as above
T6 construct: Gαi3, human, UniProt P08754, full length; source: E. coli, pET24d(+), purified as uncleaved His-tagged protein (HisPur Cobalt Resin); not shown: His tag, N-terminal, kept
T6 sequence (P08754 whole entry W211A): as the sequence (P08754 whole entry) above, with W211A counted along it

[7] = target: T1, Human His-Gαi3 WT; test: pull-down; 10 μg GST-GIV or GST-DAPLE on glutathione agarose beads (~1.25 μM); His-Gαi3 WT or mutants ~1 μM in solution; 4 h, 4 °C; 50 mM Tris-HCl pH 7.4, 100 mM NaCl, 0.4% NP-40, 10 mM MgCl2, 5 mM EDTA, 2 mM DTT, 30 μM GDP; Coomassie blue
[8] = target: T2, Human His-Gαi3 S252A; test: as above
[9] = target: T3, Human His-Gαi3 ΔC9 (lacking the last …); test: as above
[10] = target: T5, Human His-Gαi3 N256A; test: as above
[11] = target: T7, His-tagged rat Gαi3 (rat, UniProt P08753 1-354); test: pull-down; as a1 but His-Gαi3 reloaded with GDP (Gαi3-[GDP]) and buffer supplemented with 100 μM GDP
T7 construct: Same protein in three nucleotide states (nucleotide-free, GDP, GDP/AlF4−); the states are told apart by the assays a1-a3; also called His-Gαi3; Gαi3-[GDP]; source: E. coli BL21(DE3), pET28b, purified (Superdex S75); nucleotide-depleted and reloaded or not with GDP or GDP/AlF4−
T7 sequence (P08753 whole entry): as the sequence (P08754 whole entry) above, with P121S, S165T, D193E, E261D, I319V counted along it

[12] = target: T4, Full-length human Gαi3, untagged (NMR …); test: NMR titration; 1H–15N TROSY and HNCO of 32 μM 2H,13C,15N-Gαi3 titrated with GIV peptide 1,671–1,696 (molar ratios 1:0 to 1:5); 30 °C; 10 mM HEPES pH 7.0, 10 mM MgCl2, 5 mM DTT, GDP; up to 3% DMSO
[13] = target: T4, Full-length human Gαi3, untagged (NMR …); test: NMR titration; 1H–15N TROSY and HNCO of 100 μM 2H,13C,15N-Gαi3 free and with a twofold molar excess of His-GIV-CT; 30 °C; 10 mM HEPES pH 7.0, 10 mM MgCl2, 5 mM DTT, threefold molar excess of GDP

Row | Binder | binding result [1] | binding result [7] | binding result [8] | binding result [9] | binding result [10] | other results
1 | {5,6‑carboxyfluorescein}-DEAEEFFELISKAQSNRADDQRGLLRKEDLVLPEFLR (RGS12, GoLoco motif, residues 1,185–1,221; 'human' stands at the head of the list 'human GIV ..., DAPLE ... or RGS12'; read as applying to all three; also called GoLoco motif of RGS12; RGS12 GoLoco motif; source: synthetic peptide) [Fluorescein-labelled RGS12 GoLoco peptide (residues 1,185–1,221)] | binds | – | – | – | – | binding result [6]: binds
2 | GST-GIV (residues 1,671–1,755, containing its GBA motif) (domain or fragment, human, UniProt Q3V6T2-3 1671-1755, looked up, Girdin), human, residues 1,671–1,755) KTGSPGSEVVTLQQFLEESNKLTSVQIKSSSQENLLDEVMKSLSVSSDFLGKDKPVSCGLARSVSGKTPGDFYDRRTTKPEFLRP | – | binds | binds | binds | binds | binding result [11]: binds
3 | KTGSPGSEVVTLQQFLEESNKLTSVQ (GIV (Girdin), human, residues 1,671–1,696; numbers on UniProt Q3V6T2-3; Made on p-methylbenzhydrylamine resin; also called GIV fragment 1,671–1,696; source: synthetic peptide) [GIV peptide, amino acids 1,671–1,696 (GIVpept)] | – | – | – | – | – | binding result [12]: binds
4 | His-tagged human GIV residues 1,660–1,870 (GIV-CT) (domain or fragment, UniProt Q3V6T2-3 1660-1870, looked up, MALDI mass consistent with the tagged fragment lacking the initial methionine; source: E. coli BL21(DE3), pET28b, purified (Co2+ and Ni2+ columns, Superdex 200); not shown: His tag, N-terminal, kept) SETLESRHHKIKTGSPGSEVVTLQQFLEESNKLTSVQIKSSSQENLLDEVMKSLSVSSDFLGKDKPVSCGLARSVSGKTPGDFYDRRTTKPEFLRPGPRKTEDTYFISSAGKPTPGTQGKIKLVKESSLSRQSKDSNPYATLPRASSVISTAEGTTRRTSIHDFLTKDSRLPISVDSPPAAADSNTTAASNVDKVQESRNSKSRSREQQSS | – | – | – | – | – | binding result [13]: binds

Further lines, with some results ahead:

Row | binding result [1] | binding result [7] | binding result [8] | binding result [9] | binding result [10] | Binder | other results
5 | binds | – | – | – | – | {5,6‑carboxyfluorescein}-KTGSPGSEVVTLQQFLEESNKLTSVQIKSSS (numbers on UniProt Q3V6T2-3; also called GBA motif of GIV; GEF motif of GIV; source: synthetic peptide) [Fluorescein-labelled GIV peptide (residues 1,671–1,701)] | binding result [2]: binds; binding result [3]: binds; binding result [4]: binds; binding result [5]: binds
6 | – | binds | binds | binds | binds | GST-DAPLE (1,650–1,745) (domain or fragment, human, UniProt Q9P219 1650-1745, looked up, DAPLE (dishevelled-associating protein with high frequency of leucines), human, residues 1,650–1,745, cloned from Kazusa's clone fh14721 (KIAA1509)) GTAPPYVGVRPCSASPSSEMVTLEEFLEESNRSSPTHDTPSCRDDLLSDYFRKASDPPAIGGQPGPPAKKEGAKMPTNFVAPTVKMAAPTSEGRPL | –

— PMC5454376 (Nature Communications, 2017)
